Measurements taken from patent publication US20150119341A1 (PALATIN TECHNOLOGIES, published 2015).
Like-named read-outs stand apart in the source and are kept apart here. [ ]: non-standard residue; d: D form. Nle = CCCC[C@H](N)C(=O)O; Orn = NCCC[C@H](N)C(=O)O; Dab = NCC[C@H](N)C(=O)O; Sar = CNCC(=O)O

B1: Ac-Nle-Ala-His-D-Phe-Arg-Gly-Trp-NH2 (peptide)
peptide: Ac-[Nle]AH[dF]RGW-NH2
SMILES: CCCC[C@H](NC(C)=O)C(=O)N[C@@H](C)C(=O)N[C@@H](Cc1c[nH]cn1)C(=O)N[C@H](Cc1ccccc1)C(=O)N[C@@H](CCCNC(=N)N)C(=O)NCC(=O)N[C@@H](Cc1c[nH]c2ccccc12)C(N)=O
notes: synthetic linear peptide
B2: Ac-Nle-Ala-Lys-D-Phe-Arg-Ala-Trp-NH2 (peptide)
peptide: Ac-[Nle]AK[dF]RAW-NH2
SMILES: CCCC[C@H](NC(C)=O)C(=O)N[C@@H](C)C(=O)N[C@@H](CCCCN)C(=O)N[C@H](Cc1ccccc1)C(=O)N[C@@H](CCCNC(=N)N)C(=O)N[C@@H](C)C(=O)N[C@@H](Cc1c[nH]c2ccccc12)C(N)=O
notes: synthetic linear peptide
B3: Ac-Nle-Ala-Orn-D-Phe-Arg-Ala-Trp-NH2 (peptide)
peptide: Ac-[Nle]A[Orn][dF]RAW-NH2
SMILES: CCCC[C@H](NC(C)=O)C(=O)N[C@@H](C)C(=O)N[C@@H](CCCN)C(=O)N[C@H](Cc1ccccc1)C(=O)N[C@@H](CCCNC(=N)N)C(=O)N[C@@H](C)C(=O)N[C@@H](Cc1c[nH]c2ccccc12)C(N)=O
B4: Ac-Nle-Ala-Dab-D-Phe-Arg-Ala-Trp-NH2 (peptide)
peptide: Ac-[Nle]A[Dab][dF]RAW-NH2
SMILES: CCCC[C@H](NC(C)=O)C(=O)N[C@@H](C)C(=O)N[C@@H](CCN)C(=O)N[C@H](Cc1ccccc1)C(=O)N[C@@H](CCCNC(=N)N)C(=O)N[C@@H](C)C(=O)N[C@@H](Cc1c[nH]c2ccccc12)C(N)=O
B5: Ac-Nle-His-D-Phe-Arg-Ala-Trp-NH2 (peptide)
peptide: Ac-[Nle]H[dF]RAW-NH2
SMILES: CCCC[C@H](NC(C)=O)C(=O)N[C@@H](Cc1c[nH]cn1)C(=O)N[C@H](Cc1ccccc1)C(=O)N[C@@H](CCCNC(=N)N)C(=O)N[C@@H](C)C(=O)N[C@@H](Cc1c[nH]c2ccccc12)C(N)=O
notes: synthetic linear peptide
B6: Ac-Nle-Ala-His-D-Phe-Arg-Sar-Trp-NH2 (peptide)
peptide: Ac-[Nle]AH[dF]R[Sar]W-NH2
SMILES: CCCC[C@H](NC(C)=O)C(=O)N[C@@H](C)C(=O)N[C@@H](Cc1c[nH]cn1)C(=O)N[C@H](Cc1ccccc1)C(=O)N[C@@H](CCCNC(=N)N)C(=O)N(C)CC(=O)N[C@@H](Cc1c[nH]c2ccccc12)C(N)=O

Legend:
[1] = target: T1, human melanocortin-1 receptor (hMCR-1) expressed by the human melanoma cell line HBL (human, UniProt Q01726 1-317); assay: cell-based or functional assay
[2] = target: T2, recombinant human melanocortin-1 receptor (hMCR-1a) in membrane homogenates of HEK-293 cells (human, UniProt Q01726 1-317); assay: competitive inhibition of [I125]-NDP-alpha-MSH, hMCR-1 HEK-293 membranes
T2 construct: whole, on cells; Used as membrane homogenates, not intact cells; also called hMCR-la; MC-1
Procedure: (§1) A competitive inhibition binding assay was performed using membrane homogenates prepared from HEK-293 cells that express recombinant hMCR-la or hMCR-4 (in each instance where the h prefix refers to human), or alternatively membrane homogenates from B16-F10 mouse melanoma cells containing endogenous murine MCR-1. In the examples that follow, all MCR-1 and MCR-4 values are for human recombinant receptors, unless otherwise noted. Assays were performed in 96 well polypropylene round-bottom plates (VWR catalog number 12777-030).
(§2) Membrane homogenates were incubated with 0.1 nM [I¹²⁵]-NDP-α-MSH (Perkin Elmer) and increasing concentrations of test peptides of the present invention in buffer containing 25 mM HEPES buffer (pH 7.5) with 100 mM NaCl, 2 mM CaCl₂, 2 mM MgCl₂, 0.3 mM 1,10-phenanthroline, and 0.2% bovine serum albumin. After incubation for 90 minutes at 37° C., the assay mixture was filtered onto GF/B Unifilter plates (Perkin-Elmer catalog number 6005177) and washed with 3 mL of ice-cold buffer per well. Filters were air dried and 35 μL of scintillation cocktail added to each well. Plates were counted in a Microbeta counter for bound radioactivity. […] Maximal specific binding (100%) was defined as the difference in radioactivity (cpm) bound to cell membranes in the absence and presence of 1 μM NDP-α-MSH. Each assay was conducted in duplicate and the actual mean values are described, with results less than 0% reported as 0%. Ki values for peptides of the present invention were determined using Graph-Pad PRISM® curve-fitting software.

[3] = target: T3, recombinant human melanocortin-4 receptor (hMCR-4) in membrane homogenates of HEK-293 cells (human, UniProt P32245 1-332); assay: competitive inhibition of [I125]-NDP-alpha-MSH, hMCR-4 HEK-293 membranes
T3 construct: whole, on cells; Used as membrane homogenates, not intact cells; also called MC-4
Procedure: as §1, §2

[4] = target: T1, human melanocortin-1 receptor (hMCR-1) …; assay: cell-based or functional assay; remark: listed apart in the source
[5] = target: T1, human melanocortin-1 receptor (hMCR-1) …; assay: cell-based or functional assay; remark: listed apart in the source
[6] = target: T1, human melanocortin-1 receptor (hMCR-1) …; assay: cell-based or functional assay; remark: listed apart in the source
[7] = target: T1, human melanocortin-1 receptor (hMCR-1) …; assay: cell-based or functional assay; remark: listed apart in the source
[8] = target: T1, human melanocortin-1 receptor (hMCR-1) …; assay: cell-based or functional assay; remark: listed apart in the source

T1 sequence (Q01726 whole entry): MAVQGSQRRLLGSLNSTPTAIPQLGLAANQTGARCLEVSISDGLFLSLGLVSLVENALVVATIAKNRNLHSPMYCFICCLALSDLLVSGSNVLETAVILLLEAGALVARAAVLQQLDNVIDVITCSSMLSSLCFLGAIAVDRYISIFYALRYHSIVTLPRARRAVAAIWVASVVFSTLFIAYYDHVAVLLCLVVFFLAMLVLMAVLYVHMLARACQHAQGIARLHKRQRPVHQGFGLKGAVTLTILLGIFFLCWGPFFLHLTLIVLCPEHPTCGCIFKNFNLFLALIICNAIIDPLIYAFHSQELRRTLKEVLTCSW
T2 sequence (Q01726 whole entry): as above
T3 sequence (P32245 whole entry): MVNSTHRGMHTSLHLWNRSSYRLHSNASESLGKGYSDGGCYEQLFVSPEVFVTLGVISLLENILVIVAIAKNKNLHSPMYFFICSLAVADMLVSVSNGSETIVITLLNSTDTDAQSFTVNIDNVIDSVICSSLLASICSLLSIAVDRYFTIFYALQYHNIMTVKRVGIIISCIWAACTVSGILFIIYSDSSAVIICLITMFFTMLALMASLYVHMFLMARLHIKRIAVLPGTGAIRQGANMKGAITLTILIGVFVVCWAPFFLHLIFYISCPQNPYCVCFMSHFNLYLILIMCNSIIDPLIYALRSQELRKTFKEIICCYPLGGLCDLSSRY

Row | Binder | Ki [2] | Ki [3] | further results
1 | B1 | 0.8 nM | 885 nM | MC-1 EC50 (average; cAMP HBL) [1]: 0.038 nM
2 | B2 | 4 nM | 10000 nM | MC-1 EC50 (average; cAMP HBL) [4]: 0.1 nM
3 | B3 |  |  | MC-1 EC50 (average; cAMP HBL) [5]: 0.045 nM
4 | B4 |  |  | MC-1 EC50 (average; cAMP HBL) [6]: 0.165 nM
5 | B5 | 35 nM | 3420 nM | MC-1 EC50 (average; cAMP HBL) [7]: 1 nM
6 | B6 |  |  | MC-1 EC50 (average; cAMP HBL) [8]: 0.17 nM
